Where a chain is given by its changes, count along the chain named. In names and notes the source's numbering stands.
T1: human Myl12a-His (human, UniProt P19105 1-171)
T1 construct: Made in E. coli; GST tag cleaved with PreScission Protease; DTT-treated monomer
T1 sequence: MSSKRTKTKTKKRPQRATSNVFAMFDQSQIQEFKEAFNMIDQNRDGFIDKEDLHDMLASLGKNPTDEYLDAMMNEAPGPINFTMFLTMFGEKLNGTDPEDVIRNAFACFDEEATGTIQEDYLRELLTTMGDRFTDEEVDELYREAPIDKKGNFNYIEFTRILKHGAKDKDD

T2: human Myl9-His (human, UniProt P24844 2-172, limits assumed)
T2 construct: Made in E. coli; the GST tag was cleaved with PreScission Protease
T2 sequence: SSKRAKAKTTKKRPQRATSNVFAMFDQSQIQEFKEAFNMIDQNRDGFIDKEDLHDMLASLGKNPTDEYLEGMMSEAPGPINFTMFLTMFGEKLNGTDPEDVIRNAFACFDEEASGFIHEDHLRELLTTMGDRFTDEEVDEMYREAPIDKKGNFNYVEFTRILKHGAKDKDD

T3: human Myl12b-His (human, UniProt O14950 1-172)
T3 construct: Made in E. coli; GST tag cleaved with PreScission Protease; DTT-treated monomer
T3 sequence: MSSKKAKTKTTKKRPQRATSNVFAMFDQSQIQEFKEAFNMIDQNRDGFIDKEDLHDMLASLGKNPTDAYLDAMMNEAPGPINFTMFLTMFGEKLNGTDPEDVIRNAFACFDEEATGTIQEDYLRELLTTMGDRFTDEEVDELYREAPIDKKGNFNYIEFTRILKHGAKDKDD

B1: chimeric antibody prepared from Antibody A (antibody, human IgG2, kappa, V domains shown)
VH: QVQLQQSGAEVVRPGASVTLSCKASGYTFTDYEMHWVKQTPVHGLEWIGAIDPETGGTAYNQKFKGKAILTADKSSNTAYMELRSLTSEDSAVYYCTDYDYDGFAYWGQGTLVTVSA
VL: DVVMTQTPLSLPVSLGDQASISCRSSQSLVHSNGNTYLHWYLQKPGRSPKLLISKVSNRFSGVPDRFSGSGSGTDFTLKITRVEAEDLGVYFCSQNTHVPPLTFGAGTKLELKR
notes: VH and VL amino acid numbers 13 and 15 are deduced as for Antibody A
B2: Humanized antibody No. 131 (antibody, human IgG2, kappa)
heavy: QVQLVQSGSELKKPGASVKVSCKASGYTFTDYEMHWVRQAPGQGLEWMGAIDPETGGTAYNQKFKGRFVFSLDTSVSTAYLQISSLKAEDTAVYYCADYDYDGFAYWGQGTLVTVSSASTKGPSVFPLAPCSRSTSESTAALGCLVKDYFPEPVTVSWNSGALTSGVHTFPAVLQSSGLYSLSSVVTVPSSNFGTQTYTCNVDHKPSNTKVDKTVERKCCVECPPCPAPPAAAPSVFLFPPKPKDTLMISRTPEVTCVVVDVSHEDPEVQFNWYVDGVEVHNAKTKPREEQFNSTFRVVSVLTVVHQDWLNGKEYKCKVSNKGLPAPIEKTISKTKGQPREPQVYTLPPSREEMTKNQVSLTCLVKGFYPSDIAVEWESNGQPENNYKTTPPMLDSDGSFFLYSKLTVDKSRWQQGNVFSCSVMHEALHNHYTQKSLSLSPG
light: DIVMTQSPLSLPVTPGEPASISCRSSQSLVHSNGNTYLHWYLQKPGQSPQLLISKVSNRFSGVPDRFSGSGSGTDFTLKISRVEAEDVGVYFCSQNTHVPPLTFGGGTKVEIKRTVAAPSVFIFPPSDEQLKSGTASVVCLLNNFYPREAKVQWKVDNALQSGNSQESVTEQDSKDSTYSLSSTLTLSKADYEKHKVYACEVTHQGLSSPVTKSFNRGEC
notes: human IgG2 (V234A, G237A, C-terminal Lys deleted) / kappa; Expi293F, Protein A purified; also called HK3-2/L1-4
B3: Humanized antibody No. 132 (antibody, human IgG2, kappa)
heavy: B2 heavy
light: B2 light with I2V
notes: human IgG2 (V234A, G237A, C-terminal Lys deleted) / kappa; Expi293F, Protein A purified; also called HK3-2/L1-A
B4: Humanized antibody No. 134 (antibody, human IgG2, kappa, V domains shown)
VH: QVQLVQSGSELKKPGASVKVSCKASGYTFTDYEMHWVRQAPGQGLEWMGAIDPETGGTAYNQKFKGRFVFSLDTSVSTAYLQISSLKAEDTAVYYCADYDYDGFAYWGQGTLVTVSS
VL: DIVMTQTPLSSPVTLGQPASISCRSSQSLVHSNGNTYLHWYQQRPGQPPRLLISKVSNRFSGVPDRFSGSGAGTDFTLKISRVEAEDVGVYFCSQNTHVPPLTFGGGTKVEIKR
notes: human IgG2 (V234A, G237A, C-terminal Lys deleted) / kappa; Expi293F, Protein A purified; also called HK3-2/L4-2
B5: Humanized antibody No. 133 (antibody, human IgG2, kappa)
heavy: B2 heavy
light: B2 light with P12S, V13I, P18Q
notes: human IgG2 (V234A, G237A, C-terminal Lys deleted) / kappa; Expi293F, Protein A purified; also called HK3-2/L1-5
B6: Humanized antibody No. 117 (antibody, human IgG2, kappa, V domains shown)
VH: QVQLVQSGAEVKKPGASVKVSCKASGYTFTDYEMHWVRQAPGQGLEWMGAIDPETGGTAYNQKFKGRATMTADTSTSTAYMELSSLRSEDTAVYYCADYDYDGFAYWGQGTLVTVSS
VL: DIVMTQSPLSLSITPGEQASISCRSSQSLVHSNGNTYLHWYLQKPGQSPQLLISKVSNRFSGVPDRFSGSGSGTDFTLKISRVEAEDVGVYFCSQNTHVPPLTFGGGTKVEIKR
notes: human IgG2 (V234A, G237A, C-terminal Lys deleted) / kappa; Expi293F, Protein A purified; also called HK2-6/L1-5
B7: Humanized antibody No. 123 (antibody, human IgG2, kappa, V domains shown)
VH: B6 VH with A16S, Y27G, T30S, A68V, M70I, T74K
VL: B4 VL
notes: human IgG2 (V234A, G237A, C-terminal Lys deleted) / kappa; Expi293F, Protein A purified; also called HK1-5/L4-2
B8: Humanized antibody No. 126 (antibody, human IgG2, kappa, V domains shown)
VH: B6 VH with A16S, T30S, M48I, M70I, T74K, S84R, A97T
VL: B4 VL
notes: human IgG2 (V234A, G237A, C-terminal Lys deleted) / kappa; Expi293F, Protein A purified; also called HK1-A/L4-2
B9: Humanized antibody No. 125 (antibody, human IgG2, kappa, V domains shown)
VH: B6 VH with A16S, Y27G, T30S, M70I, T74K, S84R
VL: B4 VL
notes: human IgG2 (V234A, G237A, C-terminal Lys deleted) / kappa; Expi293F, Protein A purified; also called HK1-4/L4-2
B10: Humanized antibody No. 122 (antibody, human IgG2, kappa, V domains shown)
VH: B6 VH with A16S, N61A, K65Q, M70I, T74K, S84R
VL: B4 VL
notes: human IgG2 (V234A, G237A, C-terminal Lys deleted) / kappa; Expi293F, Protein A purified; also called HA1-4/L4-2
B11: Humanized antibody No. 121 (antibody, human IgG2, kappa, V domains shown)
VH: B6 VH with A16S, N61A, K65Q, A68V, M70I, T74K, S84R
VL: B4 VL
notes: human IgG2 (V234A, G237A, C-terminal Lys deleted) / kappa; Expi293F, Protein A purified; also called HA1-6/L4-2
B12: Humanized antibody No. 128 (antibody, human IgG2, kappa, V domains shown)
VH: B6 VH
VL: B4 VL
notes: human IgG2 (V234A, G237A, C-terminal Lys deleted) / kappa; Expi293F, Protein A purified; also called HK2-6/L4-2
B13: Humanized antibody No. 129 (antibody, human IgG2, kappa, V domains shown)
VH: B6 VH with A68V, T74K
VL: B4 VL
notes: human IgG2 (V234A, G237A, C-terminal Lys deleted) / kappa; Expi293F, Protein A purified; also called HK2-9/L4-2
B14: Humanized antibody No. 127 (antibody, human IgG2, kappa, V domains shown)
VH: B6 VH with A68V
VL: B4 VL
notes: human IgG2 (V234A, G237A, C-terminal Lys deleted) / kappa; Expi293F, Protein A purified; also called HK2-5/L4-2
B15: Humanized antibody No. 118 (antibody, human IgG2, kappa, V domains shown)
VH: B6 VH with A68V, T74K
VL: B6 VL
notes: human IgG2 (V234A, G237A, C-terminal Lys deleted) / kappa; Expi293F, Protein A purified; also called HK2-9/L1-5
B16: Humanized antibody No. 124 (antibody, human IgG2, kappa, V domains shown)
VH: B6 VH with A16S, Y27G, T30S, A68V, M70I, T74K, S84R
VL: B4 VL
notes: human IgG2 (V234A, G237A, C-terminal Lys deleted) / kappa; Expi293F, Protein A purified; also called HK1-6/L4-2

These binders were tested against T4, human Myl3-His (human, UniProt P08590 2-195, limits assumed) (assay: ELISA at 0.01, 0.1 and 1 µg/mL, human Myl3-His coated, anti-human IgG-HRP).
T4 construct: Made in E. coli; the GST tag was cleaved with PreScission Protease
T4 sequence (P08590 2-195 limits assumed): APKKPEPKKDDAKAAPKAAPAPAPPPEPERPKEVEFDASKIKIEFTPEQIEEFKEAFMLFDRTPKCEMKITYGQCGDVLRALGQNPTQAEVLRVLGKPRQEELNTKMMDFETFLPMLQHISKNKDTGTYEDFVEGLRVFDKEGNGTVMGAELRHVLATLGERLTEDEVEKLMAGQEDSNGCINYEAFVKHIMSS
Procedure: (§1) The binding ability of chimeric and humanized antibodies prepared from Antibody A against human Myl12a and Myl12b was evaluated following the steps below by ELISA. Human Myl3-His, human Myl9-His, human Myl12a-His and human Myl12b-His were coated onto the wells of a 96-well plate (Nunc), respectively. After an overnight incubation at 4° C., the wells were blocked at room temperature for one hour with 1× Block Ace (DS Pharma Biomedical Co., Ltd.). After washing three times with 0.02% Tween 20/PBS, the chimeric and humanized antibodies were diluted at the concentration of 0.01, 0.1 and 1 μg/mL, respectively and added to the wells. After incubation at room temperature for one hour and washing three times, horseradish peroxidase-labeled anti-human IgG antibody (Jackson ImmunoResearch Laboratories) was added, and this was incubated at room temperature for one hour. After washing 5 times, TMBZ (3,3′,5,5′-tetramethylbenzidine) solution was added to the wells, and this was incubated for 5-20 minutes at room temperature. An equal amount of reaction quenching solution (2N H₂SO₄) was added to the wells, and absorbance at 450 nm was read with a microplate reader (Thermo Scientific).

binding result	Binder
no binding (tested: 1 µg/mL)	B1

The binders below were run against T1, human Myl12a-His (assay: ELISA, human Myl12a-His coated, anti-human IgG-HRP).
Procedure: as §1

binding result	Binder
binds	B2
binds	B3
binds	B4
binds	B5
binds	B1
binds	B6
binds	B7
binds	B8
binds	B9
binds	B10
binds	B11
binds	B12
binds	B13
binds	B14
binds	B15
binds	B16

Each binder was assayed against T2, human Myl9-His (assay: ELISA, human Myl9-His coated, anti-human IgG-HRP).
Procedure: (§2) The binding ability against human Myl9 was evaluated following the steps below by ELISA. Human Myl3-His and human Myl9-His were coated onto the wells of a 96-well plate (Nunc). After an overnight incubation at 4° C., the wells were blocked at room temperature for one hour with 1× Block Ace (DS Pharma Biomedical Co., Ltd.). After washing three times with 0.02% Tween 20/PBS, seven serial dilutions by six folds of the chimeric and humanized antibodies were made from a concentration of 10 μg/mL and added to the wells. After incubation at room temperature for one hour and washing three times, horseradish peroxidase-labeled anti-human IgG antibody (Jackson ImmunoResearch Laboratories) was added, and this was incubated at room temperature for one hour. After washing 5 times, TMBZ (3,3′,5,5′-tetramethylbenzidine) solution was added to the wells, and this was incubated for 5-20 minutes at room temperature. An equal amount of reaction quenching solution (2N H₂SO₄) was added to the wells, and absorbance at 450 nm was read with a microplate reader (PerkinElmer).

binding result	Binder
binds	B2
binds	B3
binds	B4
binds	B5
binds	B1
binds	B6
binds	B7
binds	B8
binds	B9
binds	B10
binds	B11
binds	B12
binds	B13
binds	B14
binds	B15
binds	B16

These binders were tested against T3, human Myl12b-His (assay: ELISA, human Myl12b-His coated, anti-human IgG-HRP).
Procedure: as §1

binding result	Binder
binds	B2
binds	B3
binds	B4
binds	B5
binds	B1
binds	B6
binds	B7
binds	B8
binds	B9
binds	B10
binds	B11
binds	B12
binds	B13
binds	B14
binds	B15
binds	B16

These binders were tested against T4, human Myl3-His (assay: ELISA, human Myl3-His coated, anti-human IgG-HRP).
Procedure: as §2

binding result	Binder
no binding (tested: 10 µg/mL)	B2
no binding (tested: 10 µg/mL)	B3
no binding (tested: 10 µg/mL)	B4
no binding (tested: 10 µg/mL)	B5
no binding (tested: 10 µg/mL)	B6
no binding (tested: 10 µg/mL)	B7
no binding (tested: 10 µg/mL)	B8
no binding (tested: 10 µg/mL)	B9
no binding (tested: 10 µg/mL)	B10
no binding (tested: 10 µg/mL)	B11
no binding (tested: 10 µg/mL)	B12
no binding (tested: 10 µg/mL)	B13
no binding (tested: 10 µg/mL)	B14
no binding (tested: 10 µg/mL)	B15
no binding (tested: 10 µg/mL)	B16

— patent US20190002588A1 (NATIONAL UNIVERSITY CORPORATION CHIBA UNIVERSITY, published 2019)
